Reference: patent publication US20180057596A1 (AstraZeneca / MedImmune, published 2018)

T1: human IL-4Rα on TF-1 cells (human, UniProt P24394 26-825)
T1 sequence (looked up): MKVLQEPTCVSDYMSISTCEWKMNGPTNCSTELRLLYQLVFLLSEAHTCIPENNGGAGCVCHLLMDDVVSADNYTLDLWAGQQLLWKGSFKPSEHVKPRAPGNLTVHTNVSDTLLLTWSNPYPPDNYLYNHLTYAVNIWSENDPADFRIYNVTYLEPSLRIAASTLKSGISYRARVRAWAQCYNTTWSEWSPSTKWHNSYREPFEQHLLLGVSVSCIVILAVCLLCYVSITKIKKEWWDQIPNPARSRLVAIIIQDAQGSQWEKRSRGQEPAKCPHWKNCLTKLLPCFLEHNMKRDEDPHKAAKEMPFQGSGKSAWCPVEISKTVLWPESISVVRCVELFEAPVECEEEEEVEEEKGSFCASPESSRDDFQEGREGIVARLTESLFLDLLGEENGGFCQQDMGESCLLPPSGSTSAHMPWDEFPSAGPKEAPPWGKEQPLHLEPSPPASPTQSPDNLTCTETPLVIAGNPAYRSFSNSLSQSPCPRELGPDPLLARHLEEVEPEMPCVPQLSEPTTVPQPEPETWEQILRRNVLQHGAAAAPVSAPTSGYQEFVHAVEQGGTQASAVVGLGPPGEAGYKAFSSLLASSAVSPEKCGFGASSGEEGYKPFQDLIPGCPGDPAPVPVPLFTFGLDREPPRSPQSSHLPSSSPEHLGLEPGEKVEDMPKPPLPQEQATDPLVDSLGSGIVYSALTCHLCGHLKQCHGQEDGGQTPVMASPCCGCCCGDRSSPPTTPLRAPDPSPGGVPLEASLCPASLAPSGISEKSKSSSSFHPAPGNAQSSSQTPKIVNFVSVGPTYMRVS

T2: human IL4Rα/Fc (R and D Systems 604-4R) (human, UniProt P24394 26-231, limits assumed, biotin labelled in the assay of Example 5)
T2 construct: bought protein; also called IL-4Rα/Fc (R&D systems Cat. No. 604-4R-050); not shown: Fc part of the bought fusion
T2 sequence (looked up): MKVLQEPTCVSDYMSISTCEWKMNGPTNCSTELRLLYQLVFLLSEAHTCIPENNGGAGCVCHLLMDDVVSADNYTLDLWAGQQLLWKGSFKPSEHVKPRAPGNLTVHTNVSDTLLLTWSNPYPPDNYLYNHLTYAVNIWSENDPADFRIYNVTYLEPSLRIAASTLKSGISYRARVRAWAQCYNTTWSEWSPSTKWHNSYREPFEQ


Experiments:
[1] = molecular target: T1, human IL-4Rα on TF-1 cells; test: cell-based or functional assay
[2] = molecular target: T3, cynomolgus IL4Rα/Fc HIS6 (HEK expressed) (cynomolgus monkey); test: HTRF receptor-ligand assay, purified scFv against biotinylated cynomolgus IL4
T3 construct: also called Cyno IL4R; cynomolgus IL-4Rα HIS Fc (in house HEK-EBNA derived); not shown: HIS6 tag
T3 sequence (chain, as listed by the source): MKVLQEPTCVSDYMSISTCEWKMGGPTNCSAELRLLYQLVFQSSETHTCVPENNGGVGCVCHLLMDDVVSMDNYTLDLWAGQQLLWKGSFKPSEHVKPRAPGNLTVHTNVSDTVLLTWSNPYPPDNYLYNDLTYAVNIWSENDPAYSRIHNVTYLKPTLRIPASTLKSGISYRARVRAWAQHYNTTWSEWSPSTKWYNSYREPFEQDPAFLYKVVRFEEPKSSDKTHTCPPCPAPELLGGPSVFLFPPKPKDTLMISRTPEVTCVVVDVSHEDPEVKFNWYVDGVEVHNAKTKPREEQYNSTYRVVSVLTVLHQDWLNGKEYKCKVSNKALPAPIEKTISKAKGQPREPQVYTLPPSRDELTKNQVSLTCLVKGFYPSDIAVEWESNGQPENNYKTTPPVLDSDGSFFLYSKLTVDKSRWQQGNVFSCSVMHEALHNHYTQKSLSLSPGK

[3] = molecular target: T2, human IL4Rα/Fc (R and D Systems 604-4R); test: HTRF receptor-ligand assay, purified scFv against biotinylated human IL4

Binder	IC50 (pM), IL-4 induced TF-1 cell proliferation [1] [pM]	IC50 (pM), IL-13 induced TF-1 cell proliferation [1] [pM]	Ki [2] [nM]	Ki [3] [nM]
Antibody 8 IgG (antibody, V domains shown) VH: QVQLVQSGAEVKKPGASVKVSCKASGYAFTSYYMHWARQAPGQGLEWMGIINPSGGSTSYAQKFQGRVTMTRDTSTSTVYMELSSLRSEDTAVYYCARGKWWWQYWGKGTLVTVSS VL: QSVLTQPPSVSAAPGQKVTISCSGGSSNIGNSYVSWYQQLPGTAPKLLIYDNNKRPSGIPDRFSGSKSGTSATLAITGLQTGDEADYYCGTWDTSTTYHPIFGTGTKLTVL	7.9	22.4	–	–
Antibody 11 IgG (antibody, V domains shown) VH: QVQLVQSGAEVKKPGASVKVSCKASGYAFTSYYMHWARQAPGQGLEWMGIINPSGGSTSYAQKFQGRVTMTRDTSTSTVYMELSSLRSEDTAVYYCARGKWWFYDWGKGTLVTVSS VL: QSVLTQPPSVSAAPGQKVTISCSGGSSNIGNSYVSWYQQLPGTAPKLLIYDNNKRPSGIPDRFSGSKSGTSATLAITGLQTGDEADYYCGTWDTSPSMIPLFGTGTKLTVL	18.8	32.7	–	–
Antibody 10 IgG (antibody, V domains shown) VH: QVQLVQSGAEVKKPGASVKVSCKASGYAFTSYYMHWARQAPGQGLEWMGIINPSGGSTSYAQKFQGRVTMTRDTSTSTVYMELSSLRSEDTAVYYCARGKWWLYDWGKGTLVTVSS VL: QSVLTQPPSVSAAPGQKVTISCSGGSSNIGNSYVSWYQQLPGTAPKLLIYDNNKRPSGIPDRFSGSKSGTSATLAITGLQTGDEADYYCGTWDTSTVLTPIFGTGTKLTVL	10.1	25.4	–	–
Antibody 12 IgG (antibody, V domains shown) VH: QVQLVQSGAEVKKPGASVKVSCKASGYAFTSYYMHWARQAPGQGLEWMGIINPSGGSTSYAQKFQGRVTMTRDTSTSTVYMELSSLRSEDTAVYYCARGKWWFYDWGKGTLVTVSS VL: QSVLTQPPSVSAAPGQKVTISCSGGSSNIGNSYVSWYQQLPGTAPKLLIYDNNKRPSGIPDRFSGSKSGTSATLAITGLQTGDEADYYCGTWDTSTTMYPLFGTGTKLTVL	18.2	40.7	–	–
Antibody 42 scFv (scFv, V domains shown, tested as purified scFv) VH: QVQLVQSGAEVKKPGASVKVSCKASGYAFTSYYMHWARQAPGQGLEWVGIINPSGGSTSYAQKFQGRVTMTRDTSTSTVYMELSSLRSGDTAVYYCARGKYWMYDWGKGTLVTVSS VL: QAVLTQPPSVSAAPGQKVTISCSGGSSNIGNSYVSWYQRLPGAAPKLLIYDNNKRPSGIPDRFSGSKSGTSATLAITGLQTGDEADYYCGTWDTSTGWEWPFGTGTKLTVL	–	–	2.5	0.027
Antibody 31 scFv (scFv, V domains shown, tested as purified scFv) VH: QVQLVQSGAEVKKPGASVKVSCKASGYAFTSYYMHWARQAPGQGLEWMGIINPSGGSTSYAQKFQGRVTMTRDTSTSTVYMELSSLRSEDTAVYYCARGKYWMYDWGKGTLVTVSS VL: QSVLTQPPSVSAAPGQKVTISCSGGSSSIGNSYVSWYQQLPGTAPKLLIYDNNKRPSGIPDRFSGSKSGTSATLAITGLQTGDEADYYCGTWATSPVWEWPFGTGTKLTVL	–	–	2.2	0.044
Antibody 27 scFv (scFv, V domains shown, tested as purified scFv) VH: QVQLVQSGAEVRKPGASVKVSCKASGYAFTSYYMHWARQAPGQGLEWMGIINPSGGSTSYAQKFQGRVTMTRDTSTSTVYMELSSLRPEDTAVYYCARGKYWMYDWGKGTQVTVSS VL: QSVLTQPPLVSAAPGQKVTISCSGGSSNIGNSYVSWYQRLPGTAPKLLIYDNNKRPSGIPDRFSGSKSGTSATLAITGLQTGDEADYYCGTWDTSTVWEWPFGTGTKLTVL	–	–	2.8	0.063
Antibody 35 scFv (scFv, V domains shown, tested as purified scFv) VH: QVQLVQSGAEVKKPGASVKVSCKASGYAFTSYYMHWARQAPGQGLEWMGIINPSGGSTSYAQKFQGRVTMTRDTSTSTVYMELSSLRSEDTAVYYCARGKYWMYDWGKGTLVTVSS VL: QSVLTQPPSVSAAPGQKVTISCSGGSSNIGNSYVSWYQQLPGTAPKLLIYDNNKRPSGIPDRFSGSKSGTSATLAITGLQTGDEADYYCGTWDTSPVWEWPFGTGTKLTVL	–	–	2.6	0.071
Antibody 30 scFv (scFv, V domains shown, tested as purified scFv) VH: QVQLVQSGAEVKKPGASVKVSCKASGYAFTSYYMHWARQAPGQGLEWMGIINPSGGSTSYAQKFQGRVTMTRDTSTSTVYMELSSLRSEDTAVYYCARGKYWMYDWGKGTLVTVSS VL: QSVLTQPPSVSAAPGQKVTISCSGGSSNIGNSYVSWYQRLPGAAPKLLIYDNNKRPSGIPDRFSGSKSGTSATLAITGLQTGDEADYYCGTWDTSTVWEWPFGTGTKLTVL	–	–	3.6	0.069
Antibody 28 scFv (scFv, V domains shown, tested as purified scFv) VH: QVQLVQSGAEVKKPGASVKVSCKASGYAFTSYYMHWARQAPGQGLEWMGIINPSGGSTSYAQKFQGRVTMTRDTSTSTVYMELSSLRSEDTAVYYCARGKYWMYDWGNGTLVTVSS VL: LPVLTQPPSVSAAPGQKVTISCSGGSSSIGNSYVSWYQQLPGAAPKLLIYDNNKRPSGIPDRFSGFRSGTSATLAITGLQTGDEADYYCGTWDTSPVWEWPFGTGTKLTVL	–	–	1.8	0.094
Antibody 33 scFv (scFv, V domains shown, tested as purified scFv) VH: QVQLVQSGAEEKKPGASVKVSCKASGYAFTSYYMHWARQAPGQGLEWMGIINPSGGSTSYAQKFQGRVTMTRDTSTSTVYMELSSLRSEDTAVYYCARGKYWMYDWGKGTLVTVSS VL: QSALTQPPSVSAAPGQKVTISCSGGSSNIGNSYVSWYQQLPGTAPKLLIYDNNKRPSGIPDRFSGSKSGTSATLAITGLQTGDEADYFCGTWDTSTVWEWPFGTGTKLTVL	–	–	1.4	0.092
Antibody 40 scFv (scFv, V domains shown, tested as purified scFv) VH: QVQLVQSGAEVKKPGASVKVSCKASGYAFTSYYMHWARQAPGQGLEWMGIINPSGGSTSYAQKFQGRVTMTRDTSTSTVYMELSSLRSEDTAVYYCARGKYWMYDWGKGTLVTVSS VL: QSVLTQPPSVSAAPGQKVTISCSGGSSNIGNSYVSWYQQLPGTAPKLLIYDNNKRPSGIPDRFSGSKSGTSATLAITGLQTGDEADYYCGTWDSSTVWEWPFGTGTKLTVL	–	–	6.5	0.031
Antibody 37GL scFv (scFv, V domains shown, tested as purified scFv; also called NCIMB 41600) VH: QVQLVQSGAEVKKPGASVKVSCKASGYAFTSYYMHWVRQAPGQGLEWMGIINPRGGSTSYAQKFQGRVTMTRDTSTSTVYMELSSLRSEDTAVYYCARGKYWMYDWGKGTLVTVSS VL: QSVLTQPPSVSAAPGQKVTISCSGGGSSIGNSYVSWYQQLPGTAPKLLIYDNNKRPSGIPDRFSGSKSGTSATLGITGLQTGDEADYYCGTWDTSPVWEWPFGTGTKLTVL	–	–	0.7	0.061
Antibody 41 scFv (scFv, V domains shown, tested as purified scFv) VH: QVQLVQSGAEVRKPGASVKVSCKASGYAFTSYYMHWARQAPGQGLEWMGIINPSGGSTSYAQKFQGRVTMTRDTSTSTVYMELSSLRPEDTAVYYCARGKYWMYDWGKGTLVTVSG VL: QSVLTQPPSVSAAPGQKVTISCSGGSTNIGNSYVSWYQRLPGTAPKLLIYDNNKRPPGIPDRFSGSKSGTSATLAITGLQTGDEADYYCGTWDTSTVWEWPFGTGTKLTVL	–	–	2.7	0.053
Antibody 37 scFv (scFv, V domains shown, tested as purified scFv) VH: QVQLVQSGAEVKKPGASVKVSCKASGYAFTSYYMHWARQAPGQGLEWMGIINPRGGSTSYAQKFQGRVAMTRDTSTSTVYMELSSLRPEDTAVYYCARGKYWMYDWGKGTLVTVSS VL: QSVLTQPPSVSAAPGQKVTISCSGGGSSIGNSYVSWYQQLPGTAPKLLIYDNNKRPSGVPDRFSGSKSGTSATLAITGLQTGDEADYYCGTWDTSPVWEWPFGTGTKLTVL	–	–	0.8	0.04
Antibody 38 scFv (scFv, V domains shown, tested as purified scFv) VH: QVQLVQSGAEVKKPGASVKVSCKASGYAFTSYYMHWARQAPGQGLEWMGIINPSGGSASYAQKFQGRVTMTRDTSTSTVYMELSSLRSEDTAVYYCARGKYWMYDWGKGTLVTVSS VL: QSVLTQPPSVSAAPGQKVTISCSGGSSNIGNSYVSWYQQLPGTAPKLLIYDNNKRPSGIPDRFSGSKSGTSATLAITGLQTGDEADYFCGTWDTSTVWEWPFGTGTKLTVL	–	–	2.7	0.066
